For the assay, the target named is Endothelin Receptor Type B (human (endogenous in LGG275 and other patient-derived glioma lines)) (UniProt P24530).
Sequence of UniProt P24530 (P24530 27-442): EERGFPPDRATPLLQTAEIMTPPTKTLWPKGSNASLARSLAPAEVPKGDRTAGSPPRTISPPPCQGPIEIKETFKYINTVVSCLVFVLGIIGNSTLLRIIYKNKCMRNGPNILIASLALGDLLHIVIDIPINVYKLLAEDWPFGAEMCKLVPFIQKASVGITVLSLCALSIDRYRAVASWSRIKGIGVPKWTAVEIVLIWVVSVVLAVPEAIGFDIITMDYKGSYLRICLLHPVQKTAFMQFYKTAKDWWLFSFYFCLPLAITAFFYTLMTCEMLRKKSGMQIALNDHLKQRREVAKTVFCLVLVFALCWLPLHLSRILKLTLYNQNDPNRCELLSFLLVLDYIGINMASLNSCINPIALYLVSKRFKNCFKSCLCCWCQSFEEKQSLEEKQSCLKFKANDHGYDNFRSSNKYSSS

For CTCFTYKDKECVYYCHLDIIW (ligand) [Endothelin 3], the growth of LGG275 cells, dose-response with ET-3 (4 pM-40 nM): lowest concentration with growth inhibition was 0.4 nM.

(Values after paper PMC13398683.)
